Patent US20250059285A1

Biological target: cynomolgus Gal10-His (WGS isoform) (cynomolgus)
Assay: SPR Biacore 3000 on cynomolgus Gal10 (WGS isoform)

- Kd: 1.5 nM
B1: g7B07-mIgG1 (antibody, V domains shown)
VH: EVQLLESGGGLVQPGGSLRLSCAASGFTFRSYDMSWVRQAPGKGLEWVSAIKNGGGITYYADSVKGRFTISRDNSKNTLYLQMNSLRAEDTAVYYCATTHGIGTLGFGSWGQGTLVTVSS
VL: SYELTQPLSVSVALGQTARITCDGNNIGSKSAQWYQQKPGQAPVLVIYADEYRPEGIPERFSGSNSGNTATLTISRAQAGDEADYYCQVWDGSAAVFGGGTQLTVL
